# Test results from IntAct's records for PubMed 29128334.
# B1: Serine/threonine-protein kinase PINK1, mitochondrial (Homo sapiens), Q9BXM7 (parent)
# chain: MAVRQALGRGLQLGRALLLRFTGKPGRAYGLGRPGPAAGCVRGERPGWAAGPGAEPRRVGLGLPNRLRFFRQSVAGLAARLQRQFVVRAWGCAGPCGRAVFLAFGLGLGLIEEKQAESRRAVSACQEIQAIFTQKSKPGPDPLDTRRLQGFRLEEYLIGQSIGKGCSAAVYEATMPTLPQNLEVTKSTGLLPGRGPGTSAPGEGQERAPGAPAFPLAIKMMWNISAGSSSEAILNTMSQELVPASRVALAGEYGAVTYRKSKRGPKQLAPHPNIIRVLRAFTSSVPLLPGALVDYPDVLPSRLHPEGLGHGRTLFLVMKNYPCTLRQYLCVNTPSPRLAAMMLLQLLEGVDHLVQQGIAHRDLKSDNILVELDPDGCPWLVIADFGCCLADESIGLQLPFSSWYVDRGGNGCLMAPEVSTARPGPRAVIDYSKADAWAVGAIAYEIFGLVNPFYGQGKAHLESRSYQEAQLPALPESVPPDVRQLVRALLQREASKRPSARVAANVLHLSLWGEHILALKNLKLDKMVGWLLQQSAATLLANRLTEKCCVETKMKMLFLANLECETLCQAALLLCSWRAAL
# partner: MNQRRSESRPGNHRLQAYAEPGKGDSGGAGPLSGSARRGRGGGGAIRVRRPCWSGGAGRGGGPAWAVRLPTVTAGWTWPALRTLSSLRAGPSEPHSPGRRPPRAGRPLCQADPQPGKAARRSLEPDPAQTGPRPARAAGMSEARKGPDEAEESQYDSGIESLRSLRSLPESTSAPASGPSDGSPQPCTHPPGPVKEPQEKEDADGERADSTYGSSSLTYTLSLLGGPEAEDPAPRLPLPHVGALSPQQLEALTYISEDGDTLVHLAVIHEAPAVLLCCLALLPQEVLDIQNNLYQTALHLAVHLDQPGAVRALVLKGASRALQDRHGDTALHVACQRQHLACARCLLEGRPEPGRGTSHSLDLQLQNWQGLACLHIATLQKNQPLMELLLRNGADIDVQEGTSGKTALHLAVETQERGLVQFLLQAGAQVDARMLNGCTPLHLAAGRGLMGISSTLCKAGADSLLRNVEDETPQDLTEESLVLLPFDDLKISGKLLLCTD
# B2: Peroxiredoxin-5, mitochondrial (Homo sapiens), P30044 (parent)
# chain: MGLAGVCALRRSAGYILVGGAGGQSAAAAARRYSEGEWASGGVRSFSRAAAAMAPIKVGDAIPAVEVFEGEPGNKVNLAELFKGKKGVLFGVPGAFTPGCSKTHLPGFVEQAEALKAKGVQVVACLSVNDAFVTGEWGRAHKAEGKVRLLADPTGAFGKETDLLLDDSLVSIFGNRRLKRFSMVVQDGIVKALNVEPDGTGLTCSLAPNIISQL
# B3: Dihydrolipoyl dehydrogenase, mitochondrial (Homo sapiens), P09622 (parent)
# chain: MQSWSRVYCSLAKRGHFNRISHGLQGLSAVPLRTYADQPIDADVTVIGSGPGGYVAAIKAAQLGFKTVCIEKNETLGGTCLNVGCIPSKALLNNSHYYHMAHGKDFASRGIEMSEVRLNLDKMMEQKSTAVKALTGGIAHLFKQNKVVHVNGYGKITGKNQVTATKADGGTQVIDTKNILIATGSEVTPFPGITIDEDTIVSSTGALSLKKVPEKMVVIGAGVIGVELGSVWQRLGADVTAVEFLGHVGGVGIDMEISKNFQRILQKQGFKFKLNTKVTGATKKSDGKIDVSIEAASGGKAEVITCDVLLVCIGRRPFTKNLGLEELGIELDPRGRIPVNTRFQTKIPNIYAIGDVVAGPMLAHKAEDEGIICVEGMAGGAVHIDYNCVPSVIYTHPEVAWVGKSEEQLKEEGIEYKVGKFPFAANSRAKTNADTDGMVKILGQKSTDRVLGAHILGPGAGEMVNEAALALEYGASCEDIARVCHAHPTLSEAFREANLAASFGKSINF
# partner: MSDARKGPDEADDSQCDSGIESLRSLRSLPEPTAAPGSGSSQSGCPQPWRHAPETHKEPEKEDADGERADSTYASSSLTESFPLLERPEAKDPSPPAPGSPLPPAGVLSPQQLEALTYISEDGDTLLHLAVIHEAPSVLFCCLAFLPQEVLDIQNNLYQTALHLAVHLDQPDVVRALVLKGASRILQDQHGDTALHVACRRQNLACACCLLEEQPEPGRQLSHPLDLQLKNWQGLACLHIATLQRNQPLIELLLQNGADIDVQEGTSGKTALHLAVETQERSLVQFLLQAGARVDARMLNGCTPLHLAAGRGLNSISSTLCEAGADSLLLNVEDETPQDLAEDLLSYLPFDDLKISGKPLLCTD
# Variants of: B1
# Conditions: with ikbe_human NFKBIE
row,Variant,effect of a mutation on the interaction
1,A168P,disrupting interaction strength

# Variants of: B2
# Conditions: with sodc_human SOD1, P00441
# sodc_human SOD1, P00441, sequence (P00441 whole entry): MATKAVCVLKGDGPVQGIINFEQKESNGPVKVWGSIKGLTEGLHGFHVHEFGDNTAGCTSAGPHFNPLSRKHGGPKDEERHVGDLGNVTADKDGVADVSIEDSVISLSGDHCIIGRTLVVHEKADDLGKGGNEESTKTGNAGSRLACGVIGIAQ
row,Variant,effect of a mutation on the interaction
1,E80K,with no effect
2,K85R,disrupting interaction strength
3,K83R,with no effect

# Variants of: B3
# Conditions: with ikbe_mouse Nfkbie
row,Variant,effect of a mutation on the interaction
1,S491A,disrupting interaction strength
